Measurements as given in patent EP1146896B1.

Assays:
[1] = target: B28-N^ε-myristoyl-Lys^B28Pro^B29 human insulin analog (human); test: static light scattering, self-association, pH 7.8
[2] = target: B28-N^ε-myristoyl-Lys^B28Pro^B29 human insulin analog (human); test: static light scattering, self-association, pH 7.5
[3] = target: B28-N^ε-myristoyl-Lys^B28Pro^B29 human insulin analog (human); test: static light scattering, self-association, pH 8.5
[4] = target: B28-N^ε-myristoyl-Lys^B28Pro^B29 human insulin analog (human); test: static light scattering, self-association, pH 8.0
[5] = target: B28-N^ε-myristoyl-Lys^B28Pro^B29 human insulin analog (human); test: sedimentation velocity, self-association, 7 mM phosphate pH 7.95 (monomer 6,018 g/mole, theoretical hexamer 36,108 g/mole)
[6] = target: B28-N^ε-myristoyl-Lys^B28Pro^B29 human insulin analog (human); test: sedimentation velocity, self-association, 10 mM Tris pH 7.96 (monomer 6,018 g/mole, theoretical hexamer 36,108 g/mole)
[7] = target: B28-N^ε-myristoyl-Lys^B28Pro^B29 human insulin analog (human); test: sedimentation velocity analysed with DCDT Plus, self-association, pH 8.0
[8] = target: B28-N^ε-myristoyl-Lys^B28Pro^B29 human insulin analog (human); test: static light scattering, self-association, pH 8.3
[9] = target: B28-N^ε-octanoyl-Lys^B28Pro^B29 human insulin analog (human); test: sedimentation velocity (DCDT Plus), self-association, pH 8.0, first fit
[10] = target: B28-N^ε-octanoyl-Lys^B28Pro^B29 human insulin analog (human); test: sedimentation velocity (DCDT Plus), self-association, pH 8.0, refined fit
[11] = target: B29-N^ε-myristoyl-des(B30) human insulin (human) (UniProt P01308); test: sedimentation velocity (DCDT Plus, single Gaussian fit), self-association, pH 7.97
[12] = target: B29-N^ε-myristoyl-des(B30) human insulin (human) (UniProt P01308); test: sedimentation velocity, area of the profile compared with an ideal hypothetical hexamer curve, self-association, pH 8.0 (7.97)
[13] = target: B29-N^ε-myristoyl-des(B30) human insulin (human) (UniProt P01308); test: sedimentation velocity (DCDT Plus, single Gaussian fit), self-association, pH 8.4
[14] = target: B29-N^ε-myristoyl-des(B30) human insulin (human) (UniProt P01308); test: sedimentation velocity (DCDT Plus, single Gaussian fit), self-association, pH 7.5; heterogeneous
[15] = target: B29-N^ε-octanoyl-Asp^B28 human insulin analog (human); test: sedimentation velocity (DCDT Plus, two Gaussian fit), self-association, pH 7.5; hexamer said not to be dominant
[16] = target: B29-N^ε-octanoyl-Asp^B28 human insulin analog (human); test: sedimentation velocity (DCDT Plus, two Gaussian fit), self-association, pH 7.5; the model is the 27,700 g/mole species, not hexamer
[17] = target: B29-N^ε-octanoyl-Asp^B28 human insulin analog (human); test: sedimentation velocity (DCDT Plus, two Gaussian fit), self-association, pH 8.0

What does the source list for “B28-N^ε-myristoyl-Lys^B28Pro^B29 human insulin analog (ligand)”?
Mw (weight-average molecular weight of association) [1]: 60700 g/mol; Mw (weight-average molecular weight of association) [2]: 127000 g/mol; Mw (weight-average molecular weight of association) [3]: 49100 g/mol; Mw (weight-average molecular weight of association) [4]: 40400 g/mol; Calculated MW of association [5]: 34300 g/mol; Calculated MW of association [6]: 35000 g/mol; molecular weight of association [7]: 34400 grams/mole; percent of data described by the hexamer model [7]: > 96%; Mw (weight-average molecular weight of association) [8]: 40400 g/mol

“B28-N^ε-octanoyl-Lys^B28Pro^B29 human insulin analog (ligand)” was tested. Which molecular weight of association [9] did it give?
The molecular weight of association was 35300 g/mol.

What about the molecular weight of association [10] of the same substance?
The molecular weight of association was 40800 g/mol.

And the percent of data described by the hexamer model [10]?
The percent of data described by the hexamer model was over 94%.

Which MW (g/mole) of association [11] does the source give for “B29-N^ε-myristoyl-des(B30) human insulin (from UniProt P01308 25-110; P01308 25-110) (ligand)” here?
The MW (g/mole) of association was 30700 g/mol.

And the percent in the hexamer association state [12]?
Its percent in the hexamer association state is over 92 percent.

What about the MW (g/mole) of association [13] of the same substance?
Its MW (g/mole) of association is 39000 g/mol.

What about the MW (g/mole) of association [14] of the same substance?
The MW (g/mole) of association was 23000 g/mol.

With “B29-N^ε-octanoyl-Asp^B28 human insulin analog (ligand)” as the substance, how does the molecular weight of association [15] read?
The molecular weight of association was 27700 g/mol.

What about the percent of data described by the model [16] of the same substance?
The percent of data described by the model was over 92%.

And the molecular weight of association [17]?
The molecular weight of association was 33200 g/mol.

What about the percent of data described by the hexamer model [17] of the same substance?
The percent of data described by the hexamer model was 85%.
